Key:
[1] = molecular target: E protein on DENV1 strain WestPac 74 virus particles (dengue virus serotype 1, strain WestPac 74); experiment: cryo-EM structure
[2] = molecular target: human monoclonal antibody (HMAb) 1C19, IgG (human); experiment: BLI
[3] = molecular target: DENV1 PVP159 strain recombinant E protein ectodomain (residues 1-394) (dengue virus serotype 1, strain PVP159); experiment: dynamic light scattering; recombinant E proteins in 20 mM Tris pH 8.0, 200 mM NaCl, 0.025% Tween-20
[4] = molecular target: DENV1 WestPac74 strain recombinant E protein ectodomain (residues 1-394) (dengue virus serotype 1, strain WestPac 74); experiment: as above
[5] = molecular target: DENV2 NGC strain recombinant E protein ectodomain (residues 1-394) (dengue virus serotype 2, strain NGC); experiment: as above
[6] = molecular target: DENV2 PVP94/07 strain recombinant E protein ectodomain (residues 1-394) (dengue virus serotype 2, strain PVP94/07); experiment: as above

Chain of human monoclonal antibody (HMAb) 1C19, IgG (human) (heavy, as listed by the source, chain 1 of 2): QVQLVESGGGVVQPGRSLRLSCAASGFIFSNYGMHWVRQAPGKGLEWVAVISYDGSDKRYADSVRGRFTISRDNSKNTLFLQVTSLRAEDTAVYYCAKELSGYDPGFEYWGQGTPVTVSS
Chain of human monoclonal antibody (HMAb) 1C19, IgG (human) (light, as listed by the source, chain 2 of 2): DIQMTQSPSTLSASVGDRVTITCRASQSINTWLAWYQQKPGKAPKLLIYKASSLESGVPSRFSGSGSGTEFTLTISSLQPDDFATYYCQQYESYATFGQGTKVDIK

Fab 1C19
copies of Fab bound per virus particle (180 E proteins), Class I [1]: 60 copies
copies of Fab bound per virus particle (180 E proteins), Class II [1]: 60 copies

DENV1 PVP159 strain recombinant E protein ectodomain (residues 1-394) (domain or fragment)
Kd [2]: 0.712 nM
stoichiometry N [3]: 2

DENV1 WestPac74 strain recombinant E protein ectodomain (residues 1-394) (domain or fragment)
stoichiometry N [4]: 2

DENV2 NGC strain recombinant E protein ectodomain (residues 1-394) (domain or fragment)
stoichiometry N [5]: 2

DENV2 PVP94/07 strain recombinant E protein ectodomain (residues 1-394) (domain or fragment)
stoichiometry N [6]: 2

— article PMC7935256
